# According to patent US7556938B1, “Nucleic acids encoding potassium channel interactors” (Millennium Pharmaceuticals, Inc., priority 1998, dated 2009):
# T1: rKv4.2 (Rattus norvegicus, UniProt Q63881)
# T1 construct: expressed in transfected cells; host or cells: CHO cells, transient transfection with GFP co-transfected
# T1 sequence (Q63881 1-630): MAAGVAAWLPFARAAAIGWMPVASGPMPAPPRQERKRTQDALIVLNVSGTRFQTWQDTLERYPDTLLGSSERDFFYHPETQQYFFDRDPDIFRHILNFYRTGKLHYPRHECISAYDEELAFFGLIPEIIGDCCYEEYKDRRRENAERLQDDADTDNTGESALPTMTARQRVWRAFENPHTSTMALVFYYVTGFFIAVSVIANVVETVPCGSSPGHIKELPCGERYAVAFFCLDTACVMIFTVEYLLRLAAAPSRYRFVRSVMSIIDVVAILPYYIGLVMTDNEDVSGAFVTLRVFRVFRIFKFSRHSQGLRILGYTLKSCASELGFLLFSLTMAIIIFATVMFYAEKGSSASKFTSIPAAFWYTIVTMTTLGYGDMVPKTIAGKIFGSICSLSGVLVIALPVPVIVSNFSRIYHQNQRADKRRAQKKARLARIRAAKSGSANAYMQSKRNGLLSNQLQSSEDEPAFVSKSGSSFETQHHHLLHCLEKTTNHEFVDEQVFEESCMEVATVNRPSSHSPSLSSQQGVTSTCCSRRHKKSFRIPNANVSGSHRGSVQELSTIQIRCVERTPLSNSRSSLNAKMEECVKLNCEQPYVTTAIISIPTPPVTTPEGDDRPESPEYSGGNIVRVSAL
# B1: KChIP1: Potassium channel interacting protein 1v, a Ca2+-binding protein that binds and modulates Kv4 channels (protein)
# chain: MPARVLLAYPGTEMLTQGESEGLQTLGIVVVLCSSLKLLHYLGLIDLSDDKIEDDLEMTMVCHRPEGLEQLEAQTNFTKRELQVLYRGFKNECPSGVVNEETFKQIYAQFFPHGDASTYAHYLFNAFDTTQTGSVKFEDFVTALSILLRGTVHEKLRWTFNLYDINKDGYINKEEMMDIVKAIYDMMGKYTYPVLKEDTPRQHVDVFFQKMDKNKDGIVTLDEFLESCQEDDNIMRSLQLFQNVM
# Target: T1, rKv4.2
# Assay: Patch-clamp of Kv4.2 currents in CHO cells coexpressing KChIPs
# Format: cell-based
# Experimental: HEK 293 and CHO cells were used for recordings 1-3 days after a transient transfection. Whole-cell currents were recorded from cells expressing GFP, identified by their green fluorescence. […] After Gigaseal and ruptured whole-cell configuration access, resistance was less than 10 MOhms. Whole-cell bath solutions were made from a 10× Hank's balanced salt solution (GibcoBRL) with the following final concentration (in mM): 138 NaCl, 5.4 KCl, 1.3 MgCl2, 1.3 CaCl2, 5.5 D-Glukos and 10 HEPES, pH 7.4. The intracellular electrode solution consisted of (in mM) 140 KCl, 10 HEPES, 10 EGTA, 0.5 MgCl2, pH 7.3. All chemicals were from Sigma (St. Louis, Mo.) or Fisher Scientific (Houston, Tex.). Membrane currents were recorded using a EPC9 patch-clamp amplifier (HEKA, Germany). Data were analyzed using Matlab (Natick, Ma), and leak subtracted if necessary. All experiments were done at room temperature.
# Because PCIPs, e.g., KChIP1 (1v), KChIP2 (9ql), and KChIP3 (p19), colocalize and coassociate with Kv4 α-subunits in brain, another critical question was to determine whether these PCIPs alter the conductance properties of Kv4 channels. To address this issue, Kv4.2 and Kv4.3 were expressed alone and in combination with individual PCIPs. CHO cells were transiently-transfected with cDNA using the DOTAP lipofection method as described by the manufacturer (Boehringer Mannheim, Inc.). Transfected cells were identified by cotransfecting enhanced GFP along with the genes of interest and subsequently determining if the cells contained green GFP fluorescence. Currents in CHO cells were measured using the patch-clamp technique (Hamill et al. 1981. Pfluegers Arch. 391: 85-100).
# First, the amplitude of the Kv4.2 current increased approximately 7.5 fold in the presence of KChIP1 (amplitude of Kv4.2 alone=0.60+/−0.096 nA/cell; Kv4.2+KChIP1=4.5+/−0.55 nA/cell). […] Finally, the kinetics of Kv4.2 inactivation slowed considerably when Kv4.2 was coexpressed with KChIP1 (inactivation time constant of Kv4.2 alone=28.2+/−2.6 ms; Kv4.2+KChIP1=104.1+/−10.4 ms), while channels recovered from inactivation much more rapidly in cells expressing both Kv4.2 and KChIP1 (recovery tau=53.6+/−7.6 ms) versus cells expressing Kv4.2 alone (recovery tau=272.2+/−26.1 ms).
# [1] = rKv4.2 coexpressed with the KChIP, at 50 mV
molecule,measurement,setting,value
B1,activation V1/2,Kv4.2 coexpressed with KChIP1,−12.1+/−1.4 mV
same,"Inactivation time constant (ms, at 50 mV)",[1],104.1 ± 10.4 ms
same,Peak Current (nA/cell at 50 MV),[1],4.5+/−0.55 nA/cell
same,Peak Current Density (pA/pF at 50 mV),[1],306.9+/−57.9 pA/pF
same,fold increase of Kv4.2 current amplitude,versus Kv4.2 alone,approximately 7.5 fold
same,fold increase of Kv4.2 current density,versus Kv4.2 alone,12 fold
